Here are results for three molecules from patent US20140186363A1 (UNIVERSITY OF ZURICH, published 2014).

The target in test [1] is T1, MAGEA3 (human, UniProt P43357 1-314).
T1 construct: also called recombinant MAGEA3; MAGEA3-protein
The experiment in a line: ELISA, plate coated with recombinant MAGEA3, serial dilution of antibody.

The next test concerns the target T2, MAGEA3 peptide no 21.
T2 construct: also called MAGEA3 aa 201-220
T2 peptide: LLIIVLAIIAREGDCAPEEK
The experiment in a line: peptide ELISA (coated 20mer). The protocol: (§1) 20mer peptides spanning the entire MAGEA3 protein with 10 aa overlaps shared by each adjacent peptide (Peptides&Elephants, Nuthetal, Germany) were used to coat Maxisorp ELISA plates (Nunc, Rochester, N.Y.). As control a 20mer peptide representing amino acids 40-21 from the NY-ESO-1 protein was used (rev). The numbering of amino acids of MAGEA3 is based on SEQ ID No:41.
(§2) Human recombinant antibody was used at a concentration of 1 μg/ml. Bound human antibody was detected using horseradish peroxidase-conjugated goat anti-human IgG Fc-gamma specific antibodies (Jackson ImmunoResearch, Europe Ltd., Cambridgeshire, UK).

Another test deals with T3, MAGEA3 peptide no 27.
T3 construct: also called MAGEA3 aa 261-280
T3 peptide: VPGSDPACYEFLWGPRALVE
The experiment in a line: peptide ELISA (coated 20mer). The protocol: as §1, §2
On the technique in general: An ELISA detects its analyte on a solid surface through an enzyme-linked reagent.

In another test the target is T4, MAGEA3 peptide no 8.
T4 construct: also called MAGEA3 aa 71-90
T4 peptide: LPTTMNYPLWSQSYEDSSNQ
The experiment in a line: peptide ELISA (coated 20mer). The protocol: as §1, §2

The next test concerns the target T5, MAGEA3 peptide no 13.
T5 construct: also called MAGEA3 aa 121-140
T5 peptide: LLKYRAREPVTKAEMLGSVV
The experiment in a line: peptide ELISA (coated 20mer). The protocol:
as §1, §2

Another test addresses T6, MAGEA3 peptide no 28.
T6 construct: also called MAGEA3 aa 271-290
T6 peptide: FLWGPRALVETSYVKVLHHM
The experiment in a line: peptide ELISA (coated 20mer). The protocol:
as §1, §2

Another test addresses T7, MAGEA3 peptide no 10.
T7 construct: also called MAGEA3 aa 91-110
T7 peptide: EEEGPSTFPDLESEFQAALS
The experiment in a line: peptide ELISA (coated 20mer). The protocol:
as §1, §2

Test [2] concerns the target T8, MAGEA3 peptide no 19.
T8 construct: also called MAGEA3 aa 181-200
T8 peptide: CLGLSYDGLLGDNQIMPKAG
The experiment in a line: peptide ELISA (coated 20mer). The method, then:
as §1, §2

For another test, the target named is T9, MAGEA3 peptide no 12.
T9 construct: also called MAGEA3 aa 111-130
T9 peptide: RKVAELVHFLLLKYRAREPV
The experiment in a line: peptide ELISA (coated 20mer). The method, then: as §1, §2

The next test deals with T10, MAGEA3 peptide no 24.
T10 construct: also called MAGEA3 aa 231-250
T10 peptide: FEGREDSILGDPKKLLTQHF
The experiment in a line: peptide ELISA (coated 20mer). The protocol: as §1, §2

The target in test [3] is T11, MAGEA3 peptide no 31.
T11 construct: also called MAGEA3 aa 295-314
T11 peptide: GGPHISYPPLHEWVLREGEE
The experiment in a line: peptide ELISA (coated 20mer). The method, then:
as §1, §2

The target in another test is T12, MAGEA3 peptide no 3.
T12 construct: also called MAGEA3 aa 21-40
T12 peptide: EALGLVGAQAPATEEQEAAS
The experiment in a line: peptide ELISA (coated 20mer). The method, then:
as §1, §2

The target in test [4] is T13, MAGEA3 peptide no 25.
T13 construct: also called MAGEA3 aa 241-260
T13 peptide: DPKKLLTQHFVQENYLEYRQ
The experiment in a line: peptide ELISA (coated 20mer). The method, then: as §1, §2

For test [5], the target named is T14, MAGEA3 peptide no 22.
T14 construct: also called MAGEA3 aa 211-230
T14 peptide: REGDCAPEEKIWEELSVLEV
The experiment in a line: peptide ELISA (coated 20mer). The method, then: as §1, §2

For another test, the target named is T15, MAGEA3 peptide no 15.
T15 construct: also called MAGEA3 aa 141-160
T15 peptide: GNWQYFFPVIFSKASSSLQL
The experiment in a line: peptide ELISA (coated 20mer). The method, then: as §1, §2

For test [6], the target named is T1, MAGEA3. The experiment in a line: ELISA, plate coated with recombinant MAGEA3, serial dilution of antibody [Figure 4].
For another test, the target named is T16, MAGEA3 peptide no 5.
T16 construct: also called MAGEA3 aa 41-60
T16 peptide: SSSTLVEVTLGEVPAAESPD
The experiment in a line: ELISA on plate-coated 20mer peptide, antibody at 1 µg/ml, anti-human IgG Fc-HRP [Figure 1]. The method, then: as §1, §2

In test [7] the target is T8, MAGEA3 peptide no 19. The experiment in a line: peptide ELISA (coated 20mer) [Figure 1]. The method, then: as §1, §2
A further test addresses T17, MAGEA3 peptide no 20.
T17 construct: also called MAGEA3 aa 191-210
T17 peptide: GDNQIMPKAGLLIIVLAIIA
The experiment in a line: peptide ELISA (coated 20mer) [Figure 1]. The protocol: as §1, §2

In a further test the target is T18, MAGEA3 peptide no 11.
T18 construct: also called MAGEA3 aa 101-120
T18 peptide: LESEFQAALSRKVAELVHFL
The experiment in a line: peptide ELISA (coated 20mer) [Figure 1]. The protocol: as §1, §2

Test [8] addresses T11, MAGEA3 peptide no 31. The experiment in a line: peptide ELISA (coated 20mer) [Figure 1]. The protocol:
as §1, §2

Test [9] addresses T13, MAGEA3 peptide no 25. The experiment in a line: peptide ELISA (coated 20mer) [Figure 1]. The method, then:
as §1, §2

Test [10] has as its target T14, MAGEA3 peptide no 22. The experiment in a line: peptide ELISA (coated 20mer) [Figure 1]. The method, then: as §1, §2
The target in the next test is T19, MAGEA3 peptide no 29.
T19 construct: also called MAGEA3 aa 281-300
T19 peptide: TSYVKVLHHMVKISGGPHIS
The experiment in a line: peptide ELISA (coated 20mer) [Figure 1]. The method, then:
as §1, §2

In the next test the target is T20, MAGEA3 peptide no 1.
T20 construct: also called MAGEA3 aa 1-20
T20 peptide: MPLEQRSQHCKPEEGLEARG
The experiment in a line: peptide ELISA (coated 20mer) [Figure 1]. The method, then: as §1, §2

Test [11] concerns the target T1, MAGEA3. The experiment in a line: ELISA, plate coated with recombinant MAGEA3, serial dilution of antibody [Figure 4]. This is another data set of the same source.
A further test has as its target T21, MAGEA3 peptide no 6.
T21 construct: also called MAGEA3 aa 51-70
T21 peptide: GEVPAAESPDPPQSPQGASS
The experiment in a line: ELISA on plate-coated 20mer peptide, antibody at 1 µg/ml, anti-human IgG Fc-HRP [Figure 1]. The method, then:
as §1, §2

B1: 32H2 (antibody, V domains shown)
VH: QVQLVESGGGVVQPGRSLRLSCAASGFTFSSNAMHWVRQAPGKGLEWVAVISHDGSNKYYADSVKGRFTISRDNSKNTLYLQMNSLRAEDTAVYYCARDGSGSYFNLDYWGQGTLVTVSS
VL: QSALTQPASVSGSPGQSITISCTGTSSDVGGYNYVSWYQQHPGKAPKLMIYEVSNRPSGVSNRFSGSKSGNTASLTISGLQAEDEADYYCSSYTSSSTLVFGTGTKVTVL
notes: Patient-derived human antibody made recombinantly; also called human monoclonal antibody 32H2
In general, EC50 refers to the concentration that produces a half-maximal response. One may read the EC50 (read off the curve) as the concentration that produces a half-maximal response. Consider B1, for which the EC50 in the test with MAGEA3 [1] worked out at 0.033 nM. Moreover, the “EC50 (read off the curve)” value in the test with MAGEA3 [1] was roughly 0.03 nM. For the same molecule, the binding result in the test with MAGEA3 peptide no 21, in the test with MAGEA3 peptide no 27, with MAGEA3 peptide no 8, with MAGEA3 peptide no 13, with MAGEA3 peptide no 28 and with MAGEA3 peptide no 10 was “no binding (tested: 1 µg/ml)” in each case. Besides, the binding result in the test with MAGEA3 peptide no 19 [2], with MAGEA3 peptide no 12, in the test with MAGEA3 peptide no 24, with MAGEA3 peptide no 31 [3], with MAGEA3 peptide no 3 and with MAGEA3 peptide no 25 [4] was “no binding (tested: 1 µg/ml)” each time. In addition, the binding result with MAGEA3 peptide no 22 [5] and with MAGEA3 peptide no 15 was “no binding (tested: 1 µg/ml)” throughout.

B2: 102G10 (antibody, V domains shown)
VH: EVQLVESGGGLVKPGGSLRLSCAASGFTFSGNSMNWVRQAPGKGLEWVSSISSSSGYIYYADSVKGRFTVSRDNAKNSLYLQMNSLRAEDTAVYYCATWPVTTARVGYWGQGTLVTVSS
VL: QSVLTQPPSASGTPGQRVTISCSGSSSNIGSNYVYWHQQLPGTAPKLLIYRHDQRPSGVPDRFSGSKSGTSASLAISGLRSEDEADYYCAAWDDSLSAWVFGGGTKLTVL
notes: Patient-derived human antibody made recombinantly; also called human monoclonal antibody 102G10
On to B2, for which the EC50 in the test with MAGEA3 [6] is 0.034 nM. In addition, the binding result in the test with MAGEA3 peptide no 5 was “binds”; with MAGEA3 peptide no 19 [7], “no binding (tested: 1 µg/ml)”; with MAGEA3 peptide no 20, “no binding (tested: 1 µg/ml)”; with MAGEA3 peptide no 11, “no binding (tested: 1 µg/ml)”; in the test with MAGEA3 peptide no 31 [8] it was “no binding (tested: 1 µg/ml)”; with MAGEA3 peptide no 25 [9], “no binding (tested: 1 µg/ml)”. The binding result with MAGEA3 peptide no 22 [10], in the test with MAGEA3 peptide no 29 and in the test with MAGEA3 peptide no 1 was “no binding (tested: 1 µg/ml)” each time.

B3: 34G9 (antibody, V domains shown)
VH: EVQLEESGGDLVQPGGSLRLSCAASGFTFSHYWMHWVRQAPGKGLVWVSRINSDGSSTSYADSVKGRFTISRDNAKNTLYLQMNSLRAEDTAVYYCARIGSDGYNYDFWGQGTLVTVSS
VL: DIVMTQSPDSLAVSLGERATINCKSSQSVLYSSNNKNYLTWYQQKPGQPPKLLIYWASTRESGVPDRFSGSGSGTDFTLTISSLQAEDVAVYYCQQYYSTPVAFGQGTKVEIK
notes: Patient-derived human antibody made recombinantly; also called human monoclonal antibody 34G9
For the molecule B3, the EC50 with MAGEA3 [11] amounted to 0.045 nM. Besides, in the test with MAGEA3 [11], the concentration for a half-maximal effect (EC50 (read off the curve)) is roughly 0.04 nM. The binding result with MAGEA3 peptide no 6 is “binds”; with MAGEA3 peptide no 19 [7] it was “no binding (tested: 1 µg/ml)”; in the test with MAGEA3 peptide no 20, “no binding (tested: 1 µg/ml)”; with MAGEA3 peptide no 11, “no binding (tested: 1 µg/ml)”; with MAGEA3 peptide no 31 [8] it was “no binding (tested: 1 µg/ml)”; with MAGEA3 peptide no 25 [9], “no binding (tested: 1 µg/ml)”. The binding result in the test with MAGEA3 peptide no 22 [10], with MAGEA3 peptide no 29 and with MAGEA3 peptide no 1 was “no binding (tested: 1 µg/ml)” each time.
